Assay results taken from PMC8837555, “CRISPR and biochemical screens identify MAZ as a cofactor in CTCF-mediated insulation at Hox clusters”.

T1: FLAG-MAZ (Mus musculus, UniProt P56671 1-477)
T1 sequence: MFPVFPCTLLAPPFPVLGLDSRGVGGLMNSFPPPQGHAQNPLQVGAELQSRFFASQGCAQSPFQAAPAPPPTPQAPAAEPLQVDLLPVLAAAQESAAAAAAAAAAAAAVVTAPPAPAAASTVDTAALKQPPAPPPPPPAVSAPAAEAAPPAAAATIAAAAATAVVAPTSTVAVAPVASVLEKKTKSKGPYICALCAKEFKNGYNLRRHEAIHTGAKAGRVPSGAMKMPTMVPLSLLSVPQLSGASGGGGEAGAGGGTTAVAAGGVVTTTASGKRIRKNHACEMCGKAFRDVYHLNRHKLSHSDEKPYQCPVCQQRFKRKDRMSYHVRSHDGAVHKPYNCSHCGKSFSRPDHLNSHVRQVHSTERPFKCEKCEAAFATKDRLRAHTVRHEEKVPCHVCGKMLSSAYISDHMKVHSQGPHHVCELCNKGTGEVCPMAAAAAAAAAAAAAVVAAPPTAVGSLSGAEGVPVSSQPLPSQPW

B1: maz.hoxd48 (WT) (dsDNA)
DNA 1: CCTGGGTGGGAGGGGAATGGGAGGACACAAGAGCCACCCGTTCTTCTGCCCCGCCTTCCACCTCAG
DNA 2: CTGAGGTGGAAGGCGGGGCAGAAGAACGGGTGGCTCTTGTGTCCTCCCATTCCCCTCCCACCCAGG
B2: maz.hoxa56.WT (dsDNA)
DNA 1: GGAGTTGGGTGGAGGCAAGAGGGGTGGCGCGCGCGCCCTG
DNA 2: CAGGGCGCGCGCGCCACCCCTCTTGCCTCCACCCAACTCC

Molecular target: T1, FLAG-MAZ
Assay: EMSA; 1 mM ZnSO4, 5 mM MgCl2, salmon sperm DNA; 25 mM HEPES (pH not stated), 50 mM NaCl, 5% glycerol, 5 mM MgCl2, 1 mM ZnSO4, 2 μg salmon sperm DNA, 40 pM probe, 0.25-0.75 μg MAZ, 4 h at 30 °C; 5% gel, 0.25x
Conditions: protein: recombinant; tags: FLAG (CβF vector); label: 32P (T4 PNK); blunt

Binder | binding result
B1 | binds
B2 | binds
